The source of these data is ChEMBL document CHEMBL1908105, “UDP-glucuronosyltransferases and clinical drug-drug interactions” (Pharmacol Ther, 2005).

Where “and” joins values, the source holds several entries; their conditions need not be identical. Equal values may be shown once. Some results are limits rather than exact numbers.

Data set [1] has as its target UDP-glucuronosyltransferase 1A6 (Homo sapiens, UniProt P19224). Nature of the data set: Drug glucuronidation reaction catalyzed by human recombinant UGT1A6.
Data set [2] concerns the target UDP-glucuronosyltransferase 2B28 (Homo sapiens, UniProt Q9BY64). Nature of the data set: Drug glucuronidation reaction catalyzed by human recombinant UGT2B28.
The next data set addresses UGT1A4 (Homo sapiens, UniProt P22310). Nature of the data set: (§1) Drug glucuronidation reaction catalyzed by human recombinant UGT1A4. The note with it: recombinant UGT1A4.
For data set [3], the target named is T1, UDP-glucuronosyltransferase 1A4 (Homo sapiens, UniProt P22310).
T1 sequence (P22310 whole entry): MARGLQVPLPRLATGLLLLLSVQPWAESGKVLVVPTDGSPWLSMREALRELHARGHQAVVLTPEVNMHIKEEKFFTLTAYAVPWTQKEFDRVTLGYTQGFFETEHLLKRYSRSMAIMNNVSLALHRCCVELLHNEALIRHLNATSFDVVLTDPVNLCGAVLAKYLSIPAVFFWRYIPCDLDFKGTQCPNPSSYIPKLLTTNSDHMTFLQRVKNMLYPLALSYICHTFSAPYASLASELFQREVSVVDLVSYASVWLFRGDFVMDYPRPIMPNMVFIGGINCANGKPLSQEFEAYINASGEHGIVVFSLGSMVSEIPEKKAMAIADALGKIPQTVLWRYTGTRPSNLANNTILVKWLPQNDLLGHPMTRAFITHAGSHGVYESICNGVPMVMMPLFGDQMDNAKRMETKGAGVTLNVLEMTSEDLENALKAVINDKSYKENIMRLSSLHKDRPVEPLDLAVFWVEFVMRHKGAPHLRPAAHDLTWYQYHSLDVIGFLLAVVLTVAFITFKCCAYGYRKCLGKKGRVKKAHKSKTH
The description is as §1.

Substrate in data set [4]: CN1CCC(=C2c3ccccc3CC(=O)c3sccc32)CC1
The description is as §1.

Substrate in data set [5]: CN1CCC(=C2c3ccccc3C=Cc3ccccc32)CC1
Described as §1.

Substrate in data set [6]: CC[C@@H]([C@H](C)O)n1ncn(-c2ccc(N3CCN(c4ccc(OC[C@@H]5CO[C@@](Cn6cncn6)(c6ccc(F)cc6F)C5)cc4)CC3)cc2)c1=O
The description is as §1.

Substrate in data set [7]: CC(O)/C(=C(\c1ccccc1)c1ccc(OCCN(C)C)cc1)c1ccccc1
Described as §1.

Substrate in data set [8]: CC/C(=C(\c1ccccc1)c1ccc(OCCN(C)C)cc1)c1ccccc1
Described as §1.

Substrate in data set [9]: CCc1c2c(nc3ccc(O)cc13)-c1cc3c(c(=O)n1C2)COC(=O)[C@]3(O)CC
Described as §1.

Substrate in data set [10]: C[C@]12CC[C@H](O)C[C@@H]1CC[C@@H]1[C@@H]2CC[C@]2(C)[C@@H](O)CC[C@@H]12
Nature of the data set: (§2) Drug glucuronidation reaction catalyzed by human recombinant UGT2B15.

Substrate in data set [11]: CS(=O)(=O)c1ccc(C2=C(c3ccccc3)C(=O)OC2O)cc1
Described as §2.

Substrate in data set [12]: CCN(CC)C(=O)/C(C#N)=C/c1cc(O)c(O)c([N+](=O)[O-])c1
Described as §2.

Substrate in data set [13]: Cc1ccc(C(=O)c2cc(O)c(O)c([N+](=O)[O-])c2)cc1
The description is as §2.

Substrate in data set [14]: CC(O)/C(=C(\c1ccccc1)c1ccc(OCCN(C)C)cc1)c1ccccc1
Described as §2.

Substrate in data set [15]: CCc1c2c(nc3ccc(O)cc13)-c1cc3c(c(=O)n1C2)COC(=O)[C@]3(O)CC
The description is as §2.

Substrate in data set [16]: O=C1Nc2ccc(Cl)cc2C(c2ccccc2)=N[C@H]1O
Nature of the data set: not read.

Substrate in data set [17]: CC(C)Cc1ccc(C(C)C(=O)O)cc1
As to the kind of experiment: (§3) Drug glucuronidation reaction catalyzed by human recombinant UGT1A3.

Substrate in data set [18]: CN1CCC(=C2c3ccccc3CC(=O)c3sccc32)CC1
The description is as §3.

Substrate in data set [19]: CN1CCC(=C2c3ccccc3C=Cc3ccccc32)CC1
Described as §3.

Substrate in data set [20]: CN1CC[C@]23c4c5ccc(O[C@@H]6O[C@H](C(=O)O)[C@@H](O)[C@H](O)[C@H]6O)c4O[C@H]2[C@@H](O)C=C[C@H]3[C@H]1C5
Described as §3.

Substrate in data set [21]: O=C1[C@H](CC[C@H](O)c2ccc(F)cc2)[C@@H](c2ccc(O)cc2)N1c1ccc(F)cc1
The data set is described as §3.

Substrate in data set [22]: CN(C)CCCN1c2ccccc2CCc2ccccc21
The description is as §3.

Substrate in data set [23]: CO[C@]12CC[C@@]3(C[C@@H]1[C@](C)(O)C(C)(C)C)[C@H]1Cc4ccc(O)c5c4[C@@]3(CCN1CC1CC1)[C@H]2O5
Described as §3.

Substrate in data set [24]: CC(C(=O)O)c1cccc(C(=O)c2ccccc2)c1
Described as §3.

Substrate in data set [25]: Cc1c(Cl)cccc1Nc1ncccc1C(=O)O
Nature of the data set: not read.

UDP-glucuronosyltransferase 2B28, sequence (Q9BY64 whole entry): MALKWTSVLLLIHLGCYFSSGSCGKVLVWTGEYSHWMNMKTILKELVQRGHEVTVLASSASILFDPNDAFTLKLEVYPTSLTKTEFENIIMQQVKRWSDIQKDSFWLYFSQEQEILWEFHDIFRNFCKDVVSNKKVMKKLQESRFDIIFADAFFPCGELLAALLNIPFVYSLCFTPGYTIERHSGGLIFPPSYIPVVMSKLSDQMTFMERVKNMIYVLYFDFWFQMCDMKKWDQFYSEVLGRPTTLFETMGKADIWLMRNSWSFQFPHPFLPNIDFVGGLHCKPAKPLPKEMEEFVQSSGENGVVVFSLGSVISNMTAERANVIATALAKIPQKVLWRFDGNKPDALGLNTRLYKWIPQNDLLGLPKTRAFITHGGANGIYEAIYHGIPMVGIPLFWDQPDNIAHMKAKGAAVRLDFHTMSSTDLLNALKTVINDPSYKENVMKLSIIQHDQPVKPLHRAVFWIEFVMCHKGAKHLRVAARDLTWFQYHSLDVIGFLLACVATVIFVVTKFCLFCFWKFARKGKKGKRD
UDP-glucuronosyltransferase 1A6, sequence (P19224 whole entry): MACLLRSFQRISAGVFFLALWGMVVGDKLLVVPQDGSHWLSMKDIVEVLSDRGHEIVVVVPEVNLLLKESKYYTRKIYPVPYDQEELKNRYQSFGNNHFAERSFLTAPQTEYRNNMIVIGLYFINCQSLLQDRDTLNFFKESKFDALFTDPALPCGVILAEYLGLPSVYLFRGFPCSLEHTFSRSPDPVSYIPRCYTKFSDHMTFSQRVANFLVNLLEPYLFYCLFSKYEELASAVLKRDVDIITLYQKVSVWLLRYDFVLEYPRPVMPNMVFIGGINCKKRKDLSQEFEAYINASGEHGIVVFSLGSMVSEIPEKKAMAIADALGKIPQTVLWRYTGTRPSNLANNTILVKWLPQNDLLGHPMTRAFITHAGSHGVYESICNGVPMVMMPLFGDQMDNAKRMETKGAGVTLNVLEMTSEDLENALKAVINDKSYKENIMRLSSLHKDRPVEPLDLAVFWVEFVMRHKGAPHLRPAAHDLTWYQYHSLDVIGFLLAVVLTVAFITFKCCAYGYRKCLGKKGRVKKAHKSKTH

On to `CC(=O)Nc1ccc(O)cc1` [ACETAMINOPHEN], for which the Vmax in data set [1] is 100 pmol/min/mg protein.

Regarding `C[C@]12CC[C@@H]3c4ccc(O)cc4CC[C@H]3[C@@H]1CC[C@@H]2O` [ESTRADIOL], the Vmax in data set [2] is given as below 1 pmol/min/mg protein.

For `Cc1cc2c(s1)Nc1ccccc1N=C2N1CCN(C)CC1` [OLANZAPINE], at UGT1A4, the Km (in general, the substrate concentration at which the rate is half of its maximum) is 227 µM. Besides, in [3], the Vmax is 2370 pmol/min/mg protein.

B1: UDP-glucuronosyltransferase 1A4 (Homo sapiens) (protein)
chain: MARGLQVPLPRLATGLLLLLSVQPWAESGKVLVVPTDGSPWLSMREALRELHARGHQAVVLTPEVNMHIKEEKFFTLTAYAVPWTQKEFDRVTLGYTQGFFETEHLLKRYSRSMAIMNNVSLALHRCCVELLHNEALIRHLNATSFDVVLTDPVNLCGAVLAKYLSIPAVFFWRYIPCDLDFKGTQCPNPSSYIPKLLTTNSDHMTFLQRVKNMLYPLALSYICHTFSAPYASLASELFQREVSVVDLVSYASVWLFRGDFVMDYPRPIMPNMVFIGGINCANGKPLSQEFEAYINASGEHGIVVFSLGSMVSEIPEKKAMAIADALGKIPQTVLWRYTGTRPSNLANNTILVKWLPQNDLLGHPMTRAFITHAGSHGVYESICNGVPMVMMPLFGDQMDNAKRMETKGAGVTLNVLEMTSEDLENALKAVINDKSYKENIMRLSSLHKDRPVEPLDLAVFWVEFVMRHKGAPHLRPAAHDLTWYQYHSLDVIGFLLAVVLTVAFITFKCCAYGYRKCLGKKGRVKKAHKSKTH
In the case of B1, the Km in data set [4] was 59 µM and 86 µM; in data set [5], 62 µM; in data set [6], 16 µM; in data set [7], 95 µM and 101 µM; in data set [8], 32 µM; in data set [9], 147 µM. Further, the Vmax was 4.9e-05 µmol/min/mg in data set [5], 1.7e-05 µmol/min/mg in data set [6], 0.000402 µmol/min/mg in data set [8] and 0.000132 µmol/min/mg in data set [9].

B2: UDP-glucuronosyltransferase 2B15 (Homo sapiens) (protein)
chain: MSLKWTSVFLLIQLSCYFSSGSCGKVLVWPTEYSHWINMKTILEELVQRGHEVTVLTSSASTLVNASKSSAIKLEVYPTSLTKNYLEDSLLKILDRWIYGVSKNTFWSYFSQLQELCWEYYDYSNKLCKDAVLNKKLMMKLQESKFDVILADALNPCGELLAELFNIPFLYSLRFSVGYTFEKNGGGFLFPPSYVPVVMSELSDQMIFMERIKNMIHMLYFDFWFQIYDLKKWDQFYSEVLGRPTTLFETMGKAEMWLIRTYWDFEFPRPFLPNVDFVGGLHCKPAKPLPKEMEEFVQSSGENGIVVFSLGSMISNMSEESANMIASALAQIPQKVLWRFDGKKPNTLGSNTRLYKWLPQNDLLGHPKTKAFITHGGTNGIYEAIYHGIPMVGIPLFADQHDNIAHMKAKGAALSVDIRTMSSRDLLNALKSVINDPVYKENVMKLSRIHHDQPMKPLDRAVFWIEFVMRHKGAKHLRVAAHNLTWIQYHSLDVIAFLLACVATVIFIITKFCLFCFRKLAKKGKKKKRD
Turning to B2, the Km in [10] was 15 µM; in [11] it was 286 µM; in [12], 322 µM; in [13], 429 µM; in data set [14], 7 µM and 18 µM; in data set [15], 186 µM. In the data set “not read [16]”, the Km is 35 µM and 29 µM. Further, the Vmax in data set [10] stood at 0.00098 µmol/min/mg; in data set [11], 1.6e-05 µmol/min/mg; in [12], 2.4e-05 µmol/min/mg; in [13], 2.4e-05 µmol/min/mg; in data set [15] it was 2e-06 µmol/min/mg.

B3: UDP-glucuronosyltransferase 1A3 (Homo sapiens) (protein)
chain: MATGLQVPLPWLATGLLLLLSVQPWAESGKVLVVPIDGSHWLSMREVLRELHARGHQAVVLTPEVNMHIKEENFFTLTTYAISWTQDEFDRHVLGHTQLYFETEHFLKKFFRSMAMLNNMSLVYHRSCVELLHNEALIRHLNATSFDVVLTDPVNLCAAVLAKYLSIPTVFFLRNIPCDLDFKGTQCPNPSSYIPRLLTTNSDHMTFMQRVKNMLYPLALSYICHAFSAPYASLASELFQREVSVVDILSHASVWLFRGDFVMDYPRPIMPNMVFIGGINCANRKPLSQEFEAYINASGEHGIVVFSLGSMVSEIPEKKAMAIADALGKIPQTVLWRYTGTRPSNLANNTILVKWLPQNDLLGHPMTRAFITHAGSHGVYESICNGVPMVMMPLFGDQMDNAKRMETKGAGVTLNVLEMTSEDLENALKAVINDKSYKENIMRLSSLHKDRPVEPLDLAVFWVEFVMRHKGAPHLRPAAHDLTWYQYHSLDVIGFLLAVVLTVAFITFKCCAYGYRKCLGKKGRVKKAHKSKTH
As for B3, the Km in [17] is 230 µM; in [18] it was 225 µM and 123 µM; in data set [19], 240 µM; in [20], 3200 µM; in data set [21], 42 µM; in data set [22], 472 µM. Further, the figures for the Km (in data set [23]; in [24]; in the data set “not read [25]”) were 55 µM, 84 µM and 624 µM, respectively. Besides, the Vmax amounted to 8.8e-05 µmol/min/mg in [17]; 0.000134 µmol/min/mg in [19]; 1e-05 µmol/min/mg in [20]; 0.00048 µmol/min/mg in [21]; 1e-05 µmol/min/mg in data set [22]; 7.5e-05 µmol/min/mg in data set [23]. The Vmax in data set [24] was found to be 7.6e-05 µmol/min/mg; in “not read [25]”, 5.2e-05 µmol/min/mg.
